Laboratory results from patent publication US20060053496A1 (UNIVERSITY OF NORTH CAROLINA AT CHAPEL HILL, published 2006).

Target: T1, FLAG-tagged Monarch-1 (human, UniProt P59046 1-1061)
T1 construct: Expressed in transfected 293T cells and immunoprecipitated from lysate with anti-FLAG M2-agarose; also called FLAG-Monarch-1; Caterpiller 19.3; not shown: N-terminal FLAG tag added by PCR
T1 sequence: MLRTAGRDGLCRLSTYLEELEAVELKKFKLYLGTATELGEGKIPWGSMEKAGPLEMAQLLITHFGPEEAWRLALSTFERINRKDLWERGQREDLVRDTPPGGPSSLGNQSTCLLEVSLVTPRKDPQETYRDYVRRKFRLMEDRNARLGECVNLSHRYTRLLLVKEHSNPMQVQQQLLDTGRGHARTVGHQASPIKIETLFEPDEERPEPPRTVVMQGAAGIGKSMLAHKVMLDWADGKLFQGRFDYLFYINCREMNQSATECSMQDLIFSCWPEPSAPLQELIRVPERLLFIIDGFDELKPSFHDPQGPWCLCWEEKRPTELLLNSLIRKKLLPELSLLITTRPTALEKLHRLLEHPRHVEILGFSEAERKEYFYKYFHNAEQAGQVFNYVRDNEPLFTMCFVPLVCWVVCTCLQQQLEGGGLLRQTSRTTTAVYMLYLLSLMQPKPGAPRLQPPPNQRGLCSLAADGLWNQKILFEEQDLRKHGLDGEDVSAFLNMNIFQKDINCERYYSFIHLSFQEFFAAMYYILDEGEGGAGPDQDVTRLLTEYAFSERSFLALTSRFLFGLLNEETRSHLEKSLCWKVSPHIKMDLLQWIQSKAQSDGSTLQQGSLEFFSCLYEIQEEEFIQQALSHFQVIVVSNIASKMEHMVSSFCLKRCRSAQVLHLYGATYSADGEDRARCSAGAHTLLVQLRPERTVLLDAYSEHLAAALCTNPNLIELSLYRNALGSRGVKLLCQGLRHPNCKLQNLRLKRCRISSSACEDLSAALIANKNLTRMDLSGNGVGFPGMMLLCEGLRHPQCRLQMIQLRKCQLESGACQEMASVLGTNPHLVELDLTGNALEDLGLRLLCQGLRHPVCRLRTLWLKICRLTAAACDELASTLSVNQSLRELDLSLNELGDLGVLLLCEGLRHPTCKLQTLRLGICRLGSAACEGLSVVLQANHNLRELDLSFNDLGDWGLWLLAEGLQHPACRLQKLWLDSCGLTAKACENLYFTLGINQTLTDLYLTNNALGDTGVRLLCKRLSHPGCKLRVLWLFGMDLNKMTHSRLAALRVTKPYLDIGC
Assay: co-immunoprecipitation from transfected 293T cells (anti-FLAG M2-agarose IP, anti-HA western blot)
Experimental: Transfections and Immunoprecipitations. 2.5 million 293T cells were seeded in 10-cm cell culture plates. Eighteen to twenty-four hours later, 3 μg of each of the indicated plasmids was transfected using FUGENE6™ (Roche, Indianapolis, Ind.) at a 3:1 FUGENE6™ to DNA ratio and the cells were incubated an additional 18 to 24 hours. Cells were lysed in 0.5% NP-40, 150 mM NaCl, 50 mM Tris pH 8.0, 160 mM EDTA, 50 mM NaF, 10 mM sodium phosphate supplemented with protease inhibitor cocktail (Roche, Indianapolis, Ind.). Nuclei were removed and the resulting supernatant was pre-cleared with mouse IgG-conjugated agarose (Sigma, St. Louis) for 1 hour. FLAG®-tagged proteins were subsequently immunoprecipitated overnight with 35 μl M2-agarose equilibrated in lysis buffer. Beads were washed four times in lysis buffer and proteins eluted in sample buffer (20% Glycerol, 4% SDS, 130 mM Tris pH 6.8, 20 mM DTT) for western blot analysis.
Monarch-1 Associates with TRAF6 but not MyD88 or IRAK1. In addition to the proteins identified by MALDI-MS, 293T cells were transfected with Monarch-1 cDNA and one of the following: HA-MyD88, HA-TRAF6, or HA-IRAK1. Twenty-four hours later the cells were lysed and Monarch-1-containing protein complexes were immunoprecipitated with anti-FLAG® M2-agarose beads overnight. […]

binding result: no binding
B1: HA-IRAK1 (enzyme, human, UniProt P51617 1-712, looked up)
chain: MAGGPGPGEPAAPGAQHFLYEVPPWVMCRFYKVMDALEPADWCQFAALIVRDQTELRLCERSGQRTASVLWPWINRNARVADLVHILTHLQLLRARDIITAWHPPAPLPSPGTTAPRPSSIPAPAEAEAWSPRKLPSSASTFLSPAFPGSQTHSGPELGLVPSPASLWPPPPSPAPSSTKPGPESSVSLLQGARPFPFCWPLCEISRGTHNFSEELKIGEGGFGCVYRAVMRNTVYAVKRLKENADLEWTAVKQSFLTEVEQLSRFRHPNIVDFAGYCAQNGFYCLVYGFLPNGSLEDRLHCQTQACPPLSWPQRLDILLGTARAIQFLHQDSPSLIHGDIKSSNVLLDERLTPKLGDFGLARFSRFAGSSPSQSSMVARTQTVRGTLAYLPEEYIKTGRLAVDTDTFSFGVVVLETLAGQRAVKTHGARTKYLKDLVEEEAEEAGVALRSTQSTLQAGLAADAWAAPIAMQIYKKHLDPRPGPCPPELGLGLGQLACCCLHRRAKRRPPMTQVYERLEKLQAVVAGVPGHSEAASCIPPSPQENSYVSSTGRAHSGAAPWQPLAAPSGASAQAAEQLQRGPNQPVESDESLGGLSAALRSWHLTPSCPLDPAPLREAGCPQGDTAGESSWGSGPGSRPTAVEGLALGSSASSSSEPPQIIINPARQKMVQKLALYEDGALDSLQLLSSSSLPGLGLEQDRQGPEESDEFQS
notes: not shown: double 5' (N-terminal) HA tag
